# According to patent US20150167106 (NEC Solution Innovators, Ltd., published 2015):
# Tests used:
# [1] = target: T1, HA1Aichi (hemagglutinin HA1) (Influenza A virus A/Aichi/2/1968, UniProt P03437 SEQ:17-345); assay: SPR; details: tags: Sino Biological #11707-V08H1
# [2] = target: T1, HA1Aichi (hemagglutinin HA1); assay: SPR; negative control; details: tags: Sino Biological #11707-V08H1
# [3] = target: BSA (bovine serum albumin) (Bos taurus, UniProt P02769 P02769:25-607); assay: SPR; specificity control; details: tags: Nippon Gene
# [4] = target: MIF (macrophage migration inhibitory factor) (UniProt P14174 P14174:2-115); assay: SPR; specificity control; details: tags: His tag; ATGen
# [5] = target: HA1Aichi (hemagglutinin HA1) (Influenza A virus A/Aichi/2/1968, UniProt P03437 SEQ:17-345); assay: SPR; details: tags: Sino Biological #11707-V08H1; remark: listed apart in the source
# Sequence of BSA (bovine serum albumin) (P02769 25-607, one chain of several): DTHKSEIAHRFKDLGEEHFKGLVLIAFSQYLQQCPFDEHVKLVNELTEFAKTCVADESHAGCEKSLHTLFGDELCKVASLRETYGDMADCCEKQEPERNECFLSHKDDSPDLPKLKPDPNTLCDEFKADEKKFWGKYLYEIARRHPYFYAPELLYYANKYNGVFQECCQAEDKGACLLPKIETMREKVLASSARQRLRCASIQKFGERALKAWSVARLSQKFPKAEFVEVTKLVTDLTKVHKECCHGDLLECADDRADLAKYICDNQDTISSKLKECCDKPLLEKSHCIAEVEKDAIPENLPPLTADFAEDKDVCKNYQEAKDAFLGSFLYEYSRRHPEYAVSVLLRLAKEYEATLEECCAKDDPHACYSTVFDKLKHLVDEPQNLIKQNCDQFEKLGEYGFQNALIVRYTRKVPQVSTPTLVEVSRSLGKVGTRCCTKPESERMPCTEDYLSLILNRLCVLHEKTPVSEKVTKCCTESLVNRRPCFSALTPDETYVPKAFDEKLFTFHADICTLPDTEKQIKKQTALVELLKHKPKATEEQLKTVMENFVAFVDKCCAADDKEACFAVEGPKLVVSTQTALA
# Sequence of MIF (macrophage migration inhibitory factor) (P14174 2-115, one chain of several): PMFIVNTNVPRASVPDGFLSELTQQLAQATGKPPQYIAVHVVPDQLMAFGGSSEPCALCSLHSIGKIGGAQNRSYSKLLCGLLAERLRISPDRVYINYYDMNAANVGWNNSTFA
Binder,binding result [3],binding result [4],binding result [5],other results
"GGGTTTGGGTTGGGTTGGGTTTTTGGGTTTGGGTTGGGTTGGG (ssDNA, 3' poly(dA)24 tail for SPR; 3' biotin (detection) or 3' amino (capture) for ELAA) [RHA0006_s19_d5]",,,,binding result [1]: binds
"CGGCGTTTGGTTGGCGTGAACCATTTTTAAGTT (ssDNA, 3' poly(dA)24 tail for SPR; 3' biotin for ELAA) [Control]",,,,binding result [2]: no binding
"GGGTTTGGGTTGGGTTGGG (ssDNA, 3' poly(dA)24 tail for SPR) [RHA0006_s19]",no binding,no binding,,
RHA1635_s62 (ssDNA) DNA: GGGGCCCACCCTCTCGCTGGCGGCTCTGTTCTGTTCTCGTCTCCTTGATTTCTGTGGGCCCC,,,binds,
"RHA0002 (ssDNA, 3' poly(dA)24 tail for SPR) DNA: GGTTAGCCCGTCCCGAGATAACTCGGGGTGTTTGATGGTTTGGTCTGGTTGGCTTAACACACGGCGGCTGTAG",no binding,no binding,,
"GTGTTTGATGGTTTGGTCTGGTTGGCTTAACAC (ssDNA, 3' poly(dA)24 tail for SPR)",no binding,no binding,,
GTGTTTGATGGTTTGGTCTGGTTGGCTTAACAC (ssDNA),,,binds,
RHA1634_s60 (ssDNA) DNA: GGGCACCCTCTCGCTGTACGGTTGATGCACGTTTCTTTCTCTTTATATTGCTGGGTGCCC,,,binds,
TTGGGGTTATTTTGGGAGGGCGGGGGTT (ssDNA) [RHA0385_s28],,,binds,
"RHA0127 (ssDNA, 3' poly(dA)24 tail for SPR) DNA: CCTGCACCCAGTGTCCCTGGGTCGGCTAATTTGGCATTTGGGGTGGTTTGGGGGGGGGACGGAGAGGAGGACGG",no binding,no binding,,
"RHA0006 (ssDNA, 3' poly(dA)24 tail for SPR) DNA: GGTTAGCCCGTCCCGAGATAACTCGGTGTGTTGGGTTTGGGTTGGGTTGGGTCTTAACACACGGCGGCTGTAG",no binding,no binding,,
"RHA0111 (ssDNA, 3' poly(dA)24 tail for SPR) DNA: CCTGCACCCAGTGTCCCGTGCTCCGGGGGTTGGGCGTGGTGGGTCTGTCGGGTTTCGGACGGAGAGGAGGACGG",no binding,no binding,,
RHA0471_s51 (ssDNA) DNA: TCCTCGTTGGGGGTGGTGGTGGGTTTCGGTTCATGGGTGGGACGGAGAGGA,,,binds,
